Source: paper PMC2048530

Target: DC-SIGN-Fc (human) (UniProt Q9NNX6)
Sequence of UniProt Q9NNX6 (Q9NNX6 59-404): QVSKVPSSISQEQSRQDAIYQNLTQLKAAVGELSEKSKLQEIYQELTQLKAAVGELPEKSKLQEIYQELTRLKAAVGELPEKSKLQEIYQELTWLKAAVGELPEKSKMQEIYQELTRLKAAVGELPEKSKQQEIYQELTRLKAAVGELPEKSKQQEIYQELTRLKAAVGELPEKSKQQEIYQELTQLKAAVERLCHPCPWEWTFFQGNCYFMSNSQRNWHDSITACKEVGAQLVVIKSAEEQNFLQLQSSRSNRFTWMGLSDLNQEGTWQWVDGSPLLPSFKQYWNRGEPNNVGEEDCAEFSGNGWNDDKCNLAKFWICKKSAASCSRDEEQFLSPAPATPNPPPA

## HIV-1 JR-FL gp120 (recombinant monomeric gp120; mock-treated form M-gp120) (natural protein)
  IL-10 induction in iMDDCs by JR-FL gp120 (3 μg/ml) at 24 h after pre-incubation of the cells with anti-DC-SIGN mAb AZN-D1 (40 μg/ml); DC-SIGN here is the whole receptor on MDDCs: 50 % reduction
